Data from patent US20240228986A1, “ENGINEERED CELLS, ENZYMES, AND METHODS FOR PRODUCING CANNABINOIDS” (priority 2021, published 2024).

B1: MPT31 (protein)
chain: MSDNSIATKILNFGHACWKLQRPYVVKGMISIACGLFGRELLHNTNLISWGLMWKAFFALVPILSFNFFAAIMNQIYDLHIDRINKPDLPLASGEISVNTAWIMSIIVALTGLIVTIKLKSAPLFVFIYIFGIFAGFAYSVPPIRWKQNPSTNFLITISSHVGLAFTSYYASRAALGLPFELRPSFTFLLAFMTVMGMTIAFAKDISDIEGDAKYGVSTVATKLGARNMTFVVSGVLLLNYLVSISIGIIWPQVFKSNIMILSHAILAFWLILQTRDFALTNYDPEAGRRFFEFIWLLYYAEYLVYVFI
modifications: MPT31 (recombinant membrane-bound prenyltransferase)
B2: MPT21 (protein)
chain: MSDNSIATKILNFGHTCWKLQRPYVVKGMISIACGLFGKELLHNTNLISWGLMWKAFFALVPILSFNFFAAIMNQIYDVDIDRINKPDLPLVSGEMSIETAWILSIIVALTGLIVTIKLKSAPLFVFIYIFGIFAGFAYSVPPIRWKQNPSTNFLITISSHVGLAFTSYYASRAALGLPFELRPSFTFLLAFMTVMGMTIAFAKDISDIEGDAKYGVSTVATKLGARNMTFVVSGVLLLNYVAAILAGIIWPQAFNSNVMLLSHAILAFCLIFQTRELALANYASAPSRQFFEFIWLLYYAEYFVYVFI
modifications: MPT21 (recombinant membrane-bound prenyltransferase)
B3: GPS1.1-F11-MPT4.1: fusion of GPS1.1 and MPT4.1 via F11 linker, SEQ ID NO: 56 (protein)
chain: MSKAKFESVFPRISEELVQLLRDEGLPQDAVQWFSDSLQYNCVGGKLNRGLSVVDTYQLLTGKKELDDEEYYRLALLGWLIELLQAFWLVSDDIMDESKTRRGQPCWYLKPKVGMIAIWDAFMLESGIYILLKKHFRQEKYYIDLVELFHDISFKTELGQLVDLLTAPEDEVDLNRFSLDKHSFIVRYKTAYYSFYLPVVLAMYVAGITNPKDLQQAMDVLIPLGEYFQVQDDYLDNFGDPEFIGKIGTDIQDNKCSWLVNKALQKATPEQRQILEDNYGVKDKSKELVIKKLYDDMKIEQDYLDYEEEVVGDIKKKIEQVDESRGFKKEVLNAFLAKIYKRQKGGAEAAAKEAAAKAGGSGGGSGGGGSGGSGGGGSGGGGSMSDNSIATKILNFGHTCWKLQRPYAVKGMISIACGLFGRELFNNRHLFSWGLMWKAFFALVPILSFNFFAAIMNQIYDVDIDRINKPDLPLVSGEMSIETAWILSIIVALTGLIVTIKLKSAPLFVFIYIFGIFAGFAYSVPPIRWKQYPFTNFLITISSHVGLAFTSYSATTSALGLPFVWRPAFSFIIAFMTVMGMTIAFAKDISDIEGDAKYGVSTVATKLGARNMTFVVSGVLLLNYLVSISIGIIWPQVFKSNIMILSHAILAFCLIFQTRELALANYASAPSRQFFEFIWLLYYAEYFVYVFI
modifications: GPS1.1-F11-MPT4.1, geranyl diphosphate synthase, point mutant membrane-bound prenyltransferase fusion protein
B4: MPT26 (protein)
chain: MSDNSIATKILNFGHTCWKLQRPYVVKGMISIACGLFGKELLHNTNLISWGLMWKAFFALVPILSFNFFAAIMNQIYDVDIDRINKPDLPLVSGEMSIETAWILSIIVALTGLIVTIKLKSAPLFVFIYIFGIFAGFAYSVPPIRWKQNPSTNFLITISSHVGLAFTSYSATTSALGLPFVWRPAFSFIIAFMTVMGMTIAFAKDISDIEGDAKYGVSTVATKLGARNMTFVVSGVLLLNYVAAILAGIIWPQAFNSNVMLLSHAILAFWLILQTRDFALTNYDPEAGRRFFEFIWLLYYAEYFVYVFI
modifications: MPT26 (recombinant membrane-bound prenyltransferase)

What was measured:
divarinic acid (DVA) = assay: Screening of MPT library hits in Yarrowia, DVA feed (Example 2); format: cell-based; settings: DVA Feed (96 h); for CBGVA: 2 mM DVA, minimal media, 0.5% ethanol, strain sCL-SE-0128, product accumulated; for CBGVA/FCBGVA: product ratio
Description: (§1) As described in detail below, plasmid pCL-SE-0337.MPT21,26,31 were transformed into strain sCL-SE-0128 and 4 separate colonies of each were patched and precultured for 48 h. Assay cultures consisted of minimal media with 100 mM MES pH 6.5, 0.5% ethanol and 2 mM olivetolic or divarinic acid (DVA). Cultures with olivetolic acid were quenched with equal volume of ethanol after 48 h total growth while cultures with DVA with quenched after 96 h total growth. Enzymes produced CBGA and FCBGA from olivetolic acid and CBGVA and FCBGVA from DVA. Averages and standard deviations were calculated from replicates.
(§2) Overnight YPD (10 g/L yeast extract, 20 g/L peptone, 2% dextrose) cultures were inoculated from glycerol stocks of the appropriate strain and grown at 30° C. with 250 rpm shaking. Once cultures had reached an OD600 of 4-6, cultures were centrifuged at 500×g for 5 min, supernatants were discarded, and cell pellets were resuspended in equal volume of water. Resuspended cells were centrifuged at 500×g for 5 min, supernatants were discarded, and cells were resuspended in a volume (75 μL×OD×Vculture) of transformation cocktail (45% PEG-400, 0.1 M LiAc, 0.1 M DTT, and 25 ug/100 μL SS Salmon Sperm DNA). For each transformation, >1 μg of plasmid DNA was added to 55 μL cells/transformation cocktail and vortexed for 2 s. Transformations were incubated at 39° C. for 1 h with 250 rpm shaking. Transformations were resuspended in 750 μL YPD with 1 M sorbitol and recovered at 30° C. overnight with 250 rpm shaking. The next day, transformations were centrifuged at 500×g for 5 min, supernatants were discarded, and cell pellets were resuspended in 750 YPD. Resuspended transformations were plated on YPD with appropriate selection or YNBD (6.71 g/L yeast nitrogen base+nitrogen, 0.5% casamino acids, 2% dextrose) agar plates and grown at 30° C. for 2 days. Individual colonies were patched onto YPD plates with appropriate selection or YNBD plates and grown at 30° C. overnight. Patches were used to inoculate 0.5 mL YPD with appropriate selection or YNBD precultures in 96 w blocks and grown at 30° C. for 24-48 h with 1000 rpm shaking. For assays, 0.5 mL YPD with appropriate selection or YNBD cultures containing substrate were inoculated with 2 μL from precultures and grown at 30° C. for 2-4 days with 1000 rpm shaking with 2% glucose added every 24 h. Assay cultures were quenched by addition of 0.5 mL ethanol with 0.2% formic acid and 0.5 mg/mL pentyl-benzoic acid. Precipitates were pelleted by centrifuging at 4600×g for 10 min and then 200 μL was transferred to fresh plates, sealed, and analyzed via HPLC.
(§3) All samples were quenched with equal volume of EtOH containing 0.2 mg/mL internal standard (3,5-Diisopropyl-2-hydroxybenzoic acid CAS #2215-21-6) centrifuged, and clarified solutions were analyzed by HPLC-MS
(§4) • Column: 2.1×50 mm COSMOCORE PBr (Nacalai USA, Inc.) • Mobile Phase: A; 0.1% formic acid in water, B; 0.1% formic acid in acetonitrile • Flow: 0.45 mL/min • Temp: % 50 Celsius • Gradient: 20%B at 0 min, 70%B at 2.3 min, 89% B at 4.2 min, 20% B at 4.3 min, 20%B at 6 min

olivetolic acid [1] = assay: MPT fusions with GPS1.1 vs unfused MPTs, OA feed (Example 8, Table 9); format: cell-based, Yarrowia; settings: 2 mM olivetolic acid, 48 h quench; for CBGA / FCBGA: 2% glucose, strain sCL-SE-0128; for CBGA/FCBGA: product ratio
Description: (§5) As described below, plasmids pCL-SE-0406, pCL-SE-0664, pCL-SE-0663, pCL-SE-0662, pCL-SE-0380 (MPT4), pCL-SE-0337.MPT21, pCL-SE-0337.MPT26, and pCL-SE-0337.MPT31 were transformed into strain sCL-SE-0128. Multiple colonies per transformation were precultured for 48 h in YNB containing glucose (2%), casamino acids (0.5%), and MES (100 mM pH 6.5). Pre-culture was used to inoculate assay medium comprised of YNB containing glucose (2%), casamino acids (0.5%), MES (100 mM pH 6.5), and olivetolic acid (2 mM). Cultures were quenched with equal volume of ethanol after 48 h total growth and assayed for CBGA and FCBGA. Averages and standard deviations were calculated from replicates.
as §2, §3, §4

olivetolic acid [2] = assay: Screening of MPT library hits in Yarrowia, OA feed (Example 2); format: cell-based; settings: OA Feed (48 h); for CBGA: 2 mM olivetolic acid, minimal media, 0.5% ethanol, strain sCL-SE-0128, product accumulated; for CBGA/FCBGA: product ratio
Description: as §1, §2, §3, §4

divarinic acid [3] = assay: MPT fusions with GPS1.1 vs unfused MPTs, DVA feed (Example 9, Table 11); format: cell-based, Yarrowia; settings: 2 mM divarinic acid
Description: as §5, with “pCL-SE-0337.MPT21,” for “pCL-SE-0337.MPT21, pCL-SE-0337.MPT26, and pCL-SE-0337.MPT31”, “divarinic” for “olivetolic”, “quenched” for “quenched with equal volume of ethanol”, “CBGVA” for “CBGA”, “FCBGVA.” for “FCBGA.”
as §2, §3, §4

olivetolic acid [4] = assay: GPS1.1 fusions of MPT21 mutants, OA feed (Example 8, Table 10); format: cell-based, Yarrowia; settings: 3 mM olivetolic acid, 6% glucose, 48 h quench; strain sCL-SE-0128
Description: as §2, §3, §4

olivetolic acid [5] = assay: MPT4.1 with and without GPS1.1 fusion vs MPT4 fusion, in vivo assay (Example 5); format: cell-based, Yarrowia; settings: 3 mM olivetolic acid
Description: As described below, plasmids pCL-SE-0337.MPT4.1 and pCL-SE-0753 were transformed into strain sCL-SE-0128. Multiple colonies per transformation were precultured for 24 h in YNB containing glucose (2%), casamino acids (0.5%), and MES (100 mM pH 6.5). Pre-culture was used to inoculate assay medium comprised of YNB containing glucose (6%), casamino acids (0.5%), MES (100 mM pH 6.5), and olivetolic acid (3 mM). Cultures were quenched with equal volume of ethanol after 48 h total growth and assayed for CBGA and FCBGA. Averages and standard deviations were calculated from replicates.
as §2, §3, §4

olivetolic acid [6] = assay: GPS-APT fusions, OA feed in vivo assay (Example 11); format: cell-based, Yarrowia
Procedure, shortened: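 Yeast strain sCL-SE-0128 carrying GPS1.1–APT73.77 fusion plasmids (N- or C-terminal, various linkers) was precultured 48 h, then grown in YNB/glucose/casamino acids/MES pH 6.5 with 2 mM olivetolic acid. After 48 h total growth, cultures were quenched with equal-volume ethanol and CBGA/FCBGA measured by HPLC-MS against internal standard.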

divarinic acid [7] = assay: GPS1.1 fusions of MPT21 mutants, DVA feed (Example 9, Table 12); format: cell-based, Yarrowia; settings: 2 mM divarinic acid, 2% glucose, quenched after 48 h; strain sCL-SE-0128
Description: as §2, §3, §4

[8] = 2% glucose, quenched after 48 h, strain sCL-SE-0128
[9] = 6% glucose, 48 h quench, strain sCL-SE-0128
[10] = olivetolic acid feed as in Example 8, 48 h quench, strain sCL-SE-0128

Row | Molecule | CBGVA (divarinic acid (DVA)) | CBGVA/FCBGVA (divarinic acid (DVA)) | CBGA (olivetolic acid [1]) | FCBGA (olivetolic acid [1]) | CBGA/FCBGA (olivetolic acid [1]) | CBGA (olivetolic acid [2]) | CBGA/FCBGA (olivetolic acid [2]) | further results
1 | B1 | 260 ± 79 µM | 22.6 | 40 ± 12 µM | 3 ± 2 µM | 13.4 | 175 ± 63 µM | 13.9 | –
2 | B2 | 647 ± 45 µM | 6.0 | 109 ± 27 µM | 43 ± 10 µM | 2.6 | 310 ± 11 µM | 3.1 | CBGVA (divarinic acid [3]; [8]): 9 ± 3 µM; FCBGVA (divarinic acid [3]; [8]): 1 ± 1 µM; CBGVA/FCB (divarinic acid [3]; 48 h, product ratio): 10.8
3 | B3 | – | – | – | – | – | – | – | CBGA (olivetolic acid [4]): 358 ± 0 µM; FCBGA (olivetolic acid [4]): 27 ± 0 µM; CBGA (olivetolic acid [5]; [9]): 425 ± 11 µM; FCBGA (olivetolic acid [5]; [9]): 34 ± 1 µM; CBGA/FCBGA (olivetolic acid [5]; 48 h quench, product ratio): 12.6; increase of the titer of CBGA (olivetolic acid [5]; fusion vs unfused MPT4.1, 48 h): 67%; CBGA (olivetolic acid [6]; [10]): 365 ± 22 µM; FCBGA (olivetolic acid [6]; [10]): 26 ± 1 µM; CBGA/FCBG (olivetolic acid [6]; olivetolic acid feed, 48 h quench, product ratio): 14.3; CBGVA (divarinic acid [7]): 91 ± 6 µM; FCBGVA (divarinic acid [7]): 0 ± 0 µM
4 | B4 | 620 ± 134 µM | 13.7 | 61 ± 5 µM | 14 ± 1 µM | 4.4 | 261 ± 62 µM | 4.5 | –
